Measurements: the supplement of paper PMC9112550, “Optimization of the antimicrobial peptide Bac7 by deep mutational scanning” (BMC Biology, 2022)

Tested on: Escherichia coli TOP10
Experiment: shrunken log2 fold change of peptide-encoding DNA abundance (4.5 h post-induction vs induction); higher = less antimicrobial activity (less host growth inhibition)
Settings: time post-induction: 4.5 h; library: site-saturation at positions 5, 18, 19, 20
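Further: peptides expressed intracellularly from a pBAD plasmid library in pooled LB shake-flask culture, induced with 0.3% L-arabinose, DNA abundance read by NGS, three biological replicates, DESeq2 with apeglm shrinkage.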

| Sequence | shrunken log2 fold change |
| --- | --- |
| RRIRVRPPRLPRPRPRPYEYPRP | -0.137 |
| RRIRQRPPRLPRPRPRPWATPRP | 0.136 |
| RRIRNRPPRLPRPRPRPGGWPRP | 0.662 |
| RRIRRRPPRLPRPRPRPEAIPRP | 0.445 |
| RRIRFRPPRLPRPRPRPRIKPRP | -0.168 |
| RRIRARPPRLPRPRPRPGWSPRP | 0.57 |
| RRIRVRPPRLPRPRPRPTASPRP | 0.541 |
| RRIRRRPPRLPRPRPRPVDFPRP | 0.178 |
| RRIRGRPPRLPRPRPRPMRAPRP | 1.74 |
| RRIRHRPPRLPRPRPRPPIKPRP | -0.16 |
| RRIRMRPPRLPRPRPRPGMEPRP | 0.183 |
| RRIRARPPRLPRPRPRPYWPPRP | -0.00546 |
| RRIRPRPPRLPRPRPRPGVMPRP | 0.0104 |
| RRIRFRPPRLPRPRPRPYNEPRP | -0.812 |
| RRIRERPPRLPRPRPRPATPPRP | 1.31 |
| RRIRLRPPRLPRPRPRPSDGPRP | -0.162 |
| RRIRNRPPRLPRPRPRPDYKPRP | 0.0574 |
| RRIRERPPRLPRPRPRPLAIPRP | -0.56 |
| RRIRRRPPRLPRPRPRPNRAPRP | 3.1 |
| RRIRQRPPRLPRPRPRPRIPPRP | 0.206 |
| RRIRKRPPRLPRPRPRPHPYPRP | -0.0228 |
| RRIRARPPRLPRPRPRPHMDPRP | 0.281 |
| RRIRKRPPRLPRPRPRPQYSPRP | -0.906 |
| RRIRYRPPRLPRPRPRPKAIPRP | -0.497 |
| RRIRRRPPRLPRPRPRPTHLPRP | 0.578 |

| Sequence | shrunken log2 fold change |
| --- | --- |
| RRIRYRPPRLPRPRPRPFFPPRP | -0.682 |
| RRIRSRPPRLPRPRPRPAYQPRP | -0.151 |
| RRIRCRPPRLPRPRPRPLHDPRP | 0.0221 |
| RRIRCRPPRLPRPRPRPTHQPRP | 0.476 |
| RRIRMRPPRLPRPRPRPACVPRP | 0.428 |
| RRIRHRPPRLPRPRPRPPCAPRP | 0.228 |
| RRIRYRPPRLPRPRPRPQCDPRP | -0.529 |
| RRIRKRPPRLPRPRPRPKTYPRP | -0.156 |
| RRIRFRPPRLPRPRPRPRPPPRP | 1.36 |
| RRIRERPPRLPRPRPRPDVKPRP | -0.213 |
| RRIRMRPPRLPRPRPRPITKPRP | 0.0745 |
| RRIRDRPPRLPRPRPRPRHEPRP | -0.000978 |
| RRIRWRPPRLPRPRPRPCHSPRP | -0.286 |
| RRIRMRPPRLPRPRPRPARMPRP | 0.888 |
| RRIRQRPPRLPRPRPRPEWGPRP | 0.125 |
| RRIRQRPPRLPRPRPRPFFTPRP | -0.343 |
| RRIRVRPPRLPRPRPRPECTPRP | 0.464 |
| RRIRYRPPRLPRPRPRPEPPPRP | 0.49 |
| RRIRSRPPRLPRPRPRPGIMPRP | -0.334 |
| RRIRIRPPRLPRPRPRPILNPRP | -0.73 |
| RRIRQRPPRLPRPRPRPPIFPRP | 0.163 |
| RRIRARPPRLPRPRPRPRCNPRP | 0.197 |
| RRIRWRPPRLPRPRPRPYLHPRP | -0.639 |
| RRIRYRPPRLPRPRPRPESPPRP | -0.0215 |
| RRIRSRPPRLPRPRPRPPKVPRP | -0.211 |

| Sequence | shrunken log2 fold change |
| --- | --- |
| RRIRHRPPRLPRPRPRPVEWPRP | 0.123 |
| RRIRDRPPRLPRPRPRPHGWPRP | 0.861 |
| RRIRPRPPRLPRPRPRPKDEPRP | 0.363 |
| RRIRSRPPRLPRPRPRPSDSPRP | -0.612 |
| RRIRERPPRLPRPRPRPPLGPRP | 0.0751 |
| RRIRRRPPRLPRPRPRPQIPPRP | 0.00964 |
| RRIRQRPPRLPRPRPRPMNAPRP | 0.0115 |
| RRIRQRPPRLPRPRPRPGHFPRP | -0.0162 |
| RRIRYRPPRLPRPRPRPCFEPRP | -0.614 |
| RRIRNRPPRLPRPRPRPLHPPRP | 0.0757 |
| RRIRRRPPRLPRPRPRPNPVPRP | 0.123 |
| RRIRERPPRLPRPRPRPEKDPRP | -0.137 |
| RRIRLRPPRLPRPRPRPMCMPRP | -0.451 |
| RRIRDRPPRLPRPRPRPAVCPRP | 1.19 |
| RRIRHRPPRLPRPRPRPSRSPRP | -0.202 |
| RRIRQRPPRLPRPRPRPKAPPRP | 0.653 |
| RRIRRRPPRLPRPRPRPDKAPRP | -0.131 |
| RRIRKRPPRLPRPRPRPTTLPRP | 0.0155 |
| RRIRRRPPRLPRPRPRPSAYPRP | 0.104 |
| RRIRYRPPRLPRPRPRPPYLPRP | -0.985 |
| RRIRNRPPRLPRPRPRPINTPRP | -0.574 |
| RRIRSRPPRLPRPRPRPEDWPRP | 0.802 |
| RRIRMRPPRLPRPRPRPIWMPRP | -0.101 |
| RRIRWRPPRLPRPRPRPCYHPRP | -0.123 |
| RRIRVRPPRLPRPRPRPLETPRP | -0.062 |

| Sequence | shrunken log2 fold change |
| --- | --- |
| RRIRMRPPRLPRPRPRPVPEPRP | 1.21 |
| RRIRRRPPRLPRPRPRPCDFPRP | -0.128 |
| RRIRIRPPRLPRPRPRPMMMPRP | -0.227 |
| RRIRGRPPRLPRPRPRPDGEPRP | 0.259 |
| RRIRERPPRLPRPRPRPHSQPRP | 0.061 |
| RRIRRRPPRLPRPRPRPDGFPRP | 0.14 |
| RRIRERPPRLPRPRPRPAKQPRP | 0.00996 |
| RRIRYRPPRLPRPRPRPRYPPRP | -0.83 |
| RRIRIRPPRLPRPRPRPPMFPRP | -0.181 |
| RRIRNRPPRLPRPRPRPMSDPRP | -0.00992 |
| RRIRVRPPRLPRPRPRPDHIPRP | -0.206 |
| RRIRVRPPRLPRPRPRPFTKPRP | -0.79 |
| RRIRERPPRLPRPRPRPTCQPRP | 0.00216 |
| RRIRWRPPRLPRPRPRPIMPPRP | -0.0977 |
| RRIRKRPPRLPRPRPRPLFSPRP | -0.0137 |
| RRIRERPPRLPRPRPRPKSHPRP | -0.336 |
| RRIRNRPPRLPRPRPRPCCYPRP | -0.0141 |
| RRIRNRPPRLPRPRPRPAHRPRP | 0.264 |
| RRIRARPPRLPRPRPRPVRHPRP | 0.399 |
| RRIRKRPPRLPRPRPRPYAFPRP | -0.111 |
| RRIRSRPPRLPRPRPRPMAQPRP | 0.112 |
| RRIRCRPPRLPRPRPRPSRSPRP | -0.136 |
| RRIRCRPPRLPRPRPRPPAQPRP | 1.18 |
| RRIRARPPRLPRPRPRPLWKPRP | 0.121 |
| RRIRVRPPRLPRPRPRPRFMPRP | -0.459 |

| Sequence | shrunken log2 fold change |
| --- | --- |
| RRIRVRPPRLPRPRPRPMFVPRP | 0.00262 |
| RRIRRRPPRLPRPRPRPHGYPRP | 0.0169 |
| RRIRIRPPRLPRPRPRPGYKPRP | -0.231 |
| RRIRVRPPRLPRPRPRPYFFPRP | -0.512 |
| RRIRCRPPRLPRPRPRPTWDPRP | 0.151 |
| RRIRVRPPRLPRPRPRPYRCPRP | -0.0108 |
| RRIRQRPPRLPRPRPRPHGSPRP | -0.00277 |
| RRIRWRPPRLPRPRPRPATGPRP | 0.0426 |
| RRIRHRPPRLPRPRPRPYSEPRP | -0.29 |
| RRIRCRPPRLPRPRPRPLPKPRP | 0.258 |
| RRIRLRPPRLPRPRPRPLPKPRP | 0.393 |
| RRIRFRPPRLPRPRPRPYVMPRP | -0.651 |
| RRIRCRPPRLPRPRPRPDRQPRP | 0.00868 |
| RRIRVRPPRLPRPRPRPLNQPRP | -0.0183 |
| RRIRIRPPRLPRPRPRPCRTPRP | -0.333 |
| RRIRIRPPRLPRPRPRPFHTPRP | -0.235 |
| RRIRCRPPRLPRPRPRPPQRPRP | 0.94 |
| RRIRERPPRLPRPRPRPKEVPRP | -0.324 |
| RRIRHRPPRLPRPRPRPIKAPRP | -0.157 |
| RRIRERPPRLPRPRPRPARMPRP | 0.0587 |
| RRIRDRPPRLPRPRPRPFVNPRP | -0.254 |
| RRIRQRPPRLPRPRPRPNSLPRP | -0.489 |
| RRIRNRPPRLPRPRPRPDIIPRP | -0.0869 |
| RRIRKRPPRLPRPRPRPSNPPRP | -0.0952 |
| RRIRYRPPRLPRPRPRPSMKPRP | -0.806 |

| Sequence | shrunken log2 fold change |
| --- | --- |
| RRIRKRPPRLPRPRPRPLCMPRP | 0.081 |
| RRIRHRPPRLPRPRPRPRSHPRP | -0.221 |
| RRIRFRPPRLPRPRPRPPSYPRP | -0.0274 |
| RRIRLRPPRLPRPRPRPCSNPRP | -0.47 |
| RRIRTRPPRLPRPRPRPNNGPRP | -0.602 |
| RRIRTRPPRLPRPRPRPWDAPRP | 0.125 |
| RRIRGRPPRLPRPRPRPYLYPRP | -0.215 |
| RRIRKRPPRLPRPRPRPSYSPRP | -0.413 |
| RRIRVRPPRLPRPRPRPDILPRP | 0.3 |
| RRIRQRPPRLPRPRPRPELIPRP | -0.017 |
| RRIRSRPPRLPRPRPRPWGVPRP | -0.412 |
| RRIRIRPPRLPRPRPRPCDQPRP | -0.021 |
| RRIRARPPRLPRPRPRPSTVPRP | 0.123 |
| RRIRFRPPRLPRPRPRPFEIPRP | -0.0265 |
| RRIRWRPPRLPRPRPRPIFMPRP | -0.0259 |
| RRIRNRPPRLPRPRPRPGFWPRP | 0.0198 |
| RRIRARPPRLPRPRPRPRTYPRP | -0.126 |
| RRIRDRPPRLPRPRPRPGRAPRP | 0.478 |
| RRIRVRPPRLPRPRPRPSTFPRP | -0.479 |
| RRIRKRPPRLPRPRPRPPVMPRP | 0.337 |
| RRIRPRPPRLPRPRPRPSSFPRP | -0.345 |
| RRIRKRPPRLPRPRPRPSNTPRP | -0.231 |
| RRIRRRPPRLPRPRPRPMQMPRP | 0.54 |
| RRIRLRPPRLPRPRPRPIPHPRP | -0.332 |
| RRIRGRPPRLPRPRPRPGTIPRP | 0.00615 |
